In patent EP4053153A1 one finds Kd data, which are given here for three substances.

Test [1] concerns the target human transferrin receptor (human) (UniProt P02786). The test can be described thus: MST (Monolith NT.115); His-tag-dye-labelled protein, TfR titrated.
The target in test [2] is mouse transferrin receptor (mouse) (UniProt Q62351). The test is described as above.
Sequence of mouse transferrin receptor (mouse) (Q62351 89-763 limits assumed): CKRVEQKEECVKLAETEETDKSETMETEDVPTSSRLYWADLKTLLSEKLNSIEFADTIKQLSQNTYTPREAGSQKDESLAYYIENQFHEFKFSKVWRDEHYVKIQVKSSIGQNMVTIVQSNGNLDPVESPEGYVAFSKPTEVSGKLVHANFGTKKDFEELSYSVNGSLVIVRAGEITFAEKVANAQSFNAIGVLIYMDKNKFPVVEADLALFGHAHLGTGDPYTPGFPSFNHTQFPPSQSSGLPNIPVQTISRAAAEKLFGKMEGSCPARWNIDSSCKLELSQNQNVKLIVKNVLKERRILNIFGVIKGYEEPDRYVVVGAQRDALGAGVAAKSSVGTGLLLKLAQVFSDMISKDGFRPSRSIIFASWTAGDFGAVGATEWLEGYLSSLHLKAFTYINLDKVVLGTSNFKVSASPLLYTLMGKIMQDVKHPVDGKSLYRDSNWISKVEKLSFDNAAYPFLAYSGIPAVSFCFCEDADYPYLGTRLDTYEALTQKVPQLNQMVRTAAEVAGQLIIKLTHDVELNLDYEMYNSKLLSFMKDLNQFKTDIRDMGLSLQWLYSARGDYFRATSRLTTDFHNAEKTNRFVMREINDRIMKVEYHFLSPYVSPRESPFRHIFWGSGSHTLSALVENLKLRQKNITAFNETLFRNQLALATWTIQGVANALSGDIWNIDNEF

Sequence of human transferrin receptor (human) (P02786 89-760 limits assumed): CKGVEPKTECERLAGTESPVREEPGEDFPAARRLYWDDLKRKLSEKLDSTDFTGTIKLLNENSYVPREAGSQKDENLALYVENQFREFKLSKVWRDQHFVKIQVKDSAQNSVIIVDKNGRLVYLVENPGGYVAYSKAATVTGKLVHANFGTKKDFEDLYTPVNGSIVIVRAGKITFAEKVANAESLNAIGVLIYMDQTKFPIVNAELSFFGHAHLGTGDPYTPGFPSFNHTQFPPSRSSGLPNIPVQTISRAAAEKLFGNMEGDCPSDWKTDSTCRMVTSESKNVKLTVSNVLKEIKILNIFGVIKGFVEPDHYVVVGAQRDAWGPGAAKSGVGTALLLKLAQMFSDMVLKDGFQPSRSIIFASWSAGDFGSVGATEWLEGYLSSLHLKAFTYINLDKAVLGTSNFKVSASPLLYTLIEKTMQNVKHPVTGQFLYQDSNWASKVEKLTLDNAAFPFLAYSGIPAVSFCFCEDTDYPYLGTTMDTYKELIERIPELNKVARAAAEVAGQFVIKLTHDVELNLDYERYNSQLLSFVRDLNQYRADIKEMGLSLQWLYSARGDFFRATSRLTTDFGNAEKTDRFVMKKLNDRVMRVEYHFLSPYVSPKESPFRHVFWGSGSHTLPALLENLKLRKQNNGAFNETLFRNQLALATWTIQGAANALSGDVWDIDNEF

The substance N-AH1-huHF (from UniProt P02794 1-183) showed a dissociation constant Kd in test [1] of 84.6 nM.

With “N-gp100-huHF (from UniProt P02794 1-183)”, the Kd in test [2] was found to be 48.3 nM; in test [1], 18.5 nM.

On to “DE-gp100-huHF (from UniProt P02794 1-183)”, for which the dissociation constant (Kd) in test [2] worked out at 30.5 nM; in test [1] it was 9.78 nM.

A word on the Kd: it is the concentration at which binding is half-saturated.
